As usually defined, the IC50 is the concentration needed to halve the response being measured. Read a low IC50 as greater potency.

Test [1] has as its target T1, human ALPPL2 (alkaline phosphatase, germ cell type) expressed on the surface of CHO cells (human, UniProt P10696 20-503). As to the kind of experiment: cell-based or functional assay.
Test [2] addresses T2, human ALPI (intestinal alkaline phosphatase) expressed on the surface of CHO cells (human, UniProt P09923 20-503).
T2 sequence (looked up): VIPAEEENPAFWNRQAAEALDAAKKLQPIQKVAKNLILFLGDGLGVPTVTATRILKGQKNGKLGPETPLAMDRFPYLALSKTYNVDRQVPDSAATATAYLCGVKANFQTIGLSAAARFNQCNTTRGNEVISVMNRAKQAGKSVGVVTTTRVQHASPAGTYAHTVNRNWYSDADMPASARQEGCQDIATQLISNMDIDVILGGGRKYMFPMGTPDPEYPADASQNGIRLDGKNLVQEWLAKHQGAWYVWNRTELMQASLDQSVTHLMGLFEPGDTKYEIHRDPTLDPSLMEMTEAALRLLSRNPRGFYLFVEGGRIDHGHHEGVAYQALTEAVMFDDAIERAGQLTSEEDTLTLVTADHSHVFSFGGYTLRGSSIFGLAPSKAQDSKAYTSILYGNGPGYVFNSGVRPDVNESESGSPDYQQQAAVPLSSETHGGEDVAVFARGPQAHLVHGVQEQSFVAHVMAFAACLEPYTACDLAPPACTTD
As to the kind of experiment: cell-based or functional assay.

The target in test [3] is T3, human ALPL (tissue non-specific alkaline phosphatase) expressed on the surface of CHO cells (human, UniProt P05186 18-501).
T3 sequence (looked up): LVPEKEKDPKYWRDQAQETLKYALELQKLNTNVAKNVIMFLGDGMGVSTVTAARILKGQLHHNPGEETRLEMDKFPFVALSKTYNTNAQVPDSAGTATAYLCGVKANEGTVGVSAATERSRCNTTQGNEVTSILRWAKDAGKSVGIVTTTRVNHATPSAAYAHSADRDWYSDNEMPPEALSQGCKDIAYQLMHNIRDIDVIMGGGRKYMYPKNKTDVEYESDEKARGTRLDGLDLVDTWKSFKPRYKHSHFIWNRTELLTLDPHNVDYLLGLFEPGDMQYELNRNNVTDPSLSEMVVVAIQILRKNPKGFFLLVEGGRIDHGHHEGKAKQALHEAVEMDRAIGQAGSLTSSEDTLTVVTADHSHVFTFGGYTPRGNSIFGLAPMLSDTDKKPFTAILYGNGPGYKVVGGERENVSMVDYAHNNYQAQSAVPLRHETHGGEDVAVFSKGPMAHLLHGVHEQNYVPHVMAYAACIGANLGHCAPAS
As to the kind of experiment: cell-based or functional assay.

In test [4] the target is T2, human ALPI (intestinal alkaline …). Put plainly: flow cytometry, CHO-ALPI cells. On the technique in general: In flow cytometry, cells or beads pass a laser one at a time.
The target in test [5] is T3, human ALPL (tissue non-specific …). Put plainly: flow cytometry, CHO-ALPL cells.
The target in test [6] is T4, human ALPP (alkaline phosphatase, placental type) expressed on the surface of CHO cells (human, UniProt P05187 23-506).
T4 construct: also called CHO-ALPP; hALPP
T4 sequence (P05187 23-506 limits assumed): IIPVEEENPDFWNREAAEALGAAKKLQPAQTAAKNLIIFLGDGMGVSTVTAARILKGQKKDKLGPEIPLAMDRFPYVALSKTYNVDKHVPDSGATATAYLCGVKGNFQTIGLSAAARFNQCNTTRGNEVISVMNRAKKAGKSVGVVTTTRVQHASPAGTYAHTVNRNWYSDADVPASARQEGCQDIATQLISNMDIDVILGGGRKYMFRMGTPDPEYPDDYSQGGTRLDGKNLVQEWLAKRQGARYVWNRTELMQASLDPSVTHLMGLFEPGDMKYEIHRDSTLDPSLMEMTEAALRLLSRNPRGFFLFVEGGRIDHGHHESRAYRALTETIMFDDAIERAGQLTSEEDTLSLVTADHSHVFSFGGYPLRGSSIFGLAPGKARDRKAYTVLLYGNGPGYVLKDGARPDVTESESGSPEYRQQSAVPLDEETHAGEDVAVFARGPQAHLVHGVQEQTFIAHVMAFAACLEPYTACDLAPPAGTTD
Put plainly: flow cytometry on CHO-ALPP cells, apparent KD (KDapp). On the procedure: (§1) Biparatopic VHH-hFc drug conjugates were assessed for human ALPP, ALPPL2, ALPI and ALPL cell-surface binding by flow cytometry. Binders were screened on CHO cells stably expressing human ALPP, ALPPL2, ALPI or ALPL.
(§2) Cell surface binding of test agents to hALPP isoforms was characterized in four CHO-ALPP isoform transfectant cell lines (CHO-ALPP, CHO-ALPPL2, CHO-ALPI and CHO-ALPL) and the resulting KDapp values determined. Adherent cells were detached from tissue culture flasks by incubating with 0.1% EDTA/PBS solution at 37° C. for […] or until cells detached easily. Cells were re-suspended in ice-cold PBS/2% FCS in 15 ml tubes and centrifuged at 1700 rpm for 5 mins at 4° C. Supernatant was removed and the cell pellet re-suspended in PBS/2% FCS. […] Cells were incubated with 100 μl of test agents at a range of concentrations, plus controls for 1 hr on ice. The sample plate was centrifuged at 1700 rpm for 5 mins at 4° C. The supernatant was removed, and a wash performed by re-suspending the cell pellets in 0.25 mL of ice-cold PBS/2% FCS using a multichannel pipette. Samples were again centrifuged at 1700 rpm for 5 min at 4° C. Supernatant was removed and two further washes performed as described. After the final wash and centrifugation step, excess liquid was removed by blotting the plate on tissue paper. Binding of VHH-hFc agents was determined by adding 100 μl of Fitc-anti-human Ab (ThermoFisher) and incubating for 30 mins on ice in the dark. Wash steps were performed as described previously. All cell pellets were finally re-suspended in 0.28 ml of ice-cold PBS/2% FCS and left on ice in the dark prior to analysis on a Merck-Millipore Guava EasyCyte HT or Thermo Fisher Attune N×T flow cytometer.

Test [7] has as its target T1, human ALPPL2 (alkaline phosphatase, …). As to the kind of experiment: flow cytometry on CHO-ALPPL2 cells, apparent KD (KDapp). As to the method: as §1, §2
The target of the next test is T5, human ALPI on CHO cells (human, UniProt P09923 20-503).
T5 construct: whole, on cells; also called CHO-ALPI
T5 sequence (looked up): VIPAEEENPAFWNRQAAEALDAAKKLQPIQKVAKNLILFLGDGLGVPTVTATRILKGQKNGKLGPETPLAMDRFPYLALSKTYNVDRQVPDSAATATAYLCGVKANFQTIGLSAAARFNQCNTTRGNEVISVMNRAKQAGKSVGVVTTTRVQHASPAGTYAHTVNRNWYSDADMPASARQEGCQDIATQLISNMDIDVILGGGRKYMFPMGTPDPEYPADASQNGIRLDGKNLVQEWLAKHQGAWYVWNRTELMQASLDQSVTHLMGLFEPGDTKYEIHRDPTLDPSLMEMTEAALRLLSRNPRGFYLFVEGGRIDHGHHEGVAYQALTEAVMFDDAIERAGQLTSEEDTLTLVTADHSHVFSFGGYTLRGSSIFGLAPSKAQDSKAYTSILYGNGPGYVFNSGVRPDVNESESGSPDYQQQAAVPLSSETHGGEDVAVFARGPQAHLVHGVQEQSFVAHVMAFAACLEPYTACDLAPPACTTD
As to the kind of experiment: flow cytometry, CHO cells stably expressing human ALPI; PDC detected with FITC anti-human Ab. On the procedure: as §1, §2

Another test deals with T6, human ALPL on CHO cells (human, UniProt P05186 18-501).
T6 construct: whole, on cells; also called CHO-ALPL
T6 sequence (looked up): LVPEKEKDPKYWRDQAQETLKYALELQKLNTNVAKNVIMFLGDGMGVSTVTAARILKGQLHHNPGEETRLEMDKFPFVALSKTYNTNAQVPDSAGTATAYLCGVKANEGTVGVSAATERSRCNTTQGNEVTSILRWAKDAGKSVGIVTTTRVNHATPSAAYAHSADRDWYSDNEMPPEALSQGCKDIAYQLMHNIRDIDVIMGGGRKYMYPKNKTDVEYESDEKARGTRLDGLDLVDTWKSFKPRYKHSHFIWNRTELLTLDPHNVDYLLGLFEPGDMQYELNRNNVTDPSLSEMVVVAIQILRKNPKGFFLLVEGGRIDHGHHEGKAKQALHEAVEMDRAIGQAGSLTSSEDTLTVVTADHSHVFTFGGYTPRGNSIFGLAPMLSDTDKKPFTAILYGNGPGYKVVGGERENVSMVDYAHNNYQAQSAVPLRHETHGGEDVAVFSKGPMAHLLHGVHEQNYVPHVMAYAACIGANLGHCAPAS
Put plainly: flow cytometry, CHO cells stably expressing human ALPL; PDC detected with FITC anti-human Ab. Summed up: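 Cell-surface binding to CHO cells stably transfected with human ALPP, ALPPL2, ALPI or ALPL; cells detached with 0.1% EDTA/PBS, incubated with biparatopic VHH-hFc drug conjugates over a concentration range for 1 hr on ice. Bound agent detected with FITC anti-human Ab (30 min, ice, dark) by flow cytometry; KDapp derived from binding.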

T1 sequence (P10696 20-503): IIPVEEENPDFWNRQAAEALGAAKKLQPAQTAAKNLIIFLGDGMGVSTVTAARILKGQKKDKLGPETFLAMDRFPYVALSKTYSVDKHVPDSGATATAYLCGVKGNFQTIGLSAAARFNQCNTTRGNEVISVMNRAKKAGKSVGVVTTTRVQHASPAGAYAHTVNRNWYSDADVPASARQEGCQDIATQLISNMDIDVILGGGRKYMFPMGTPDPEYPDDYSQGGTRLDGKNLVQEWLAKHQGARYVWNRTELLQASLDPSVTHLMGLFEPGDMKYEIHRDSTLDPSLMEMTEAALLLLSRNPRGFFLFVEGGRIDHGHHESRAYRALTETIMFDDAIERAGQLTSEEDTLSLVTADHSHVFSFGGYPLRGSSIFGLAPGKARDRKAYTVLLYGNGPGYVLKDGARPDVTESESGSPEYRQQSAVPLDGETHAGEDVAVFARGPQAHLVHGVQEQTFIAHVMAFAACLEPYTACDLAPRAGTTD

B1: D10 E10-hFc (S239/442C T366Y/Y407T), [G4S]3 linker, MC-vc-PAB-MMAE conjugate, #636 (Fc fusion, DAR 4)
chain 1: QVQLVESGGGLVQPGGSLRLSCAASGSIFSVNTMGWYRQAPGKQRDLVAVATSGGTIHYADSVKGRFTISRDNAKNTVYLQMNSLKPEDTAVYYCNLVVPYGMIAGDHDYWGQGTKVTVSSGGGGSGGGGSGGGGSEPKSSDKTHTCPPCPAPELLGGPCVFLFPPKPKDTLMISRTPEVTCVVVDVSHEDPEVKFNWYVDGVEVHNAKTKPREEQYNSTYRVVSVLTVLHQDWLNGKEYKCKVSNKALPAPIEKTISKAKGQPREPQVYTLPPSRDELTKNQVSLYCLVKGFYPSDIAVEWESNGQPENNYKTTPPVLDSDGSFFLYSKLTVDKSRWQQGNVFSCSVMHEALHNHYTQKSLCLSPGK
chain 2: QVQLVESGGGLVQAGGSLRLSCAVSGRALSDYNIGWFRQAPGKEREFVARKTWDGSSTRYDDSVKGRFTVSIEDAKNTAYLQMSSLKTEDTAVYYCAAGRYSRARGWEYDYWGQGTQVTVSSGGGGSGGGGSGGGGSEPKSSDKTHTCPPCPAPELLGGPCVFLFPPKPKDTLMISRTPEVTCVVVDVSHEDPEVKFNWYVDGVEVHNAKTKPREEQYNSTYRVVSVLTVLHQDWLNGKEYKCKVSNKALPAPIEKTISKAKGQPREPQVYTLPPSRDELTKNQVSLTCLVKGFYPSDIAVEWESNGQPENNYKTTPPVLDSDGSFFLTSKLTVDKSRWQQGNVFSCSVMHEALHNHYTQKSLCLSPGK
modifications: MC-vc-PAB-MMAE on Cys of S239C and S442C (EU numbering)
notes: Biparatopic knob-into-hole VHH-hFc heterodimer, DAR 4; also called D10-E10 hFc-vcPAB-MMAE; D10-E10 hFc-vc-MMAE
Turning to B1, the half-inhibitory concentration (IC50) at 96 h, cell-killing of CHO-ALPPL2 cells in test [1] is 12.5 nM. For the same molecule, the “IC50 at 96 h, cell-killing of CHO-ALPI cells” value in test [2] was above 1000 nM. The half-inhibitory concentration (IC50) at 96 h, cell-killing of CHO-ALPL cells in test [3] is above 1000 nM. Moreover, the binding result in [4] and in test [5] was “no binding (tested: 350 nM (highest concentration))” in each case. Moreover, the figures for the Kd in [6] and in test [7] were 6.8 nM and 4.7 nM, respectively.

B2: D10 F05-hFc (S239/442C T366Y/Y407T), [G4S]3 linker, MC-vc-PAB-MMAE conjugate, #637 (Fc fusion, DAR 4)
chain 1: QVQLVESGGGLVQPGGSLRLSCAASGSIFSVNTMGWYRQAPGKQRDLVAVATSGGTIHYADSVKGRFTISRDNAKNTVYLQMNSLKPEDTAVYYCNLVVPYGMIAGDHDYWGQGTKVTVSSGGGGSGGGGSGGGGSEPKSSDKTHTCPPCPAPELLGGPCVFLFPPKPKDTLMISRTPEVTCVVVDVSHEDPEVKFNWYVDGVEVHNAKTKPREEQYNSTYRVVSVLTVLHQDWLNGKEYKCKVSNKALPAPIEKTISKAKGQPREPQVYTLPPSRDELTKNQVSLYCLVKGFYPSDIAVEWESNGQPENNYKTTPPVLDSDGSFFLYSKLTVDKSRWQQGNVFSCSVMHEALHNHYTQKSLCLSPGK
chain 2: QVQLVESGGGLVQAGGSLRLSCAASGRAFGDYNIGWFRQAPGKEREFVARRTWDGSSTRYDDSVKGRFTVSIDNAKNTAYLQMNSLKTEDTAVYYCAAGRYSRVRGWEYDYWGQGTQVTVSSGGGGSGGGGSGGGGSEPKSSDKTHTCPPCPAPELLGGPCVFLFPPKPKDTLMISRTPEVTCVVVDVSHEDPEVKFNWYVDGVEVHNAKTKPREEQYNSTYRVVSVLTVLHQDWLNGKEYKCKVSNKALPAPIEKTISKAKGQPREPQVYTLPPSRDELTKNQVSLTCLVKGFYPSDIAVEWESNGQPENNYKTTPPVLDSDGSFFLTSKLTVDKSRWQQGNVFSCSVMHEALHNHYTQKSLCLSPGK
modifications: MC-vc-PAB-MMAE on Cys of S239C and S442C (EU numbering)
notes: Biparatopic knob-into-hole VHH-hFc heterodimer, DAR 4; also called D10-F05 hFc-vcPAB-MMAE; D10-F05 hFc-vc-MMAE
Regarding B2, 13 nM corresponded to half-maximal inhibition in test [1] (IC50 at 96 h, cell-killing of CHO-ALPPL2 cells). Moreover, in test [2], the concentration for half-maximal inhibition (IC50) at 96 h, cell-killing of CHO-ALPI cells is above 1000 nM. In test [3], the “IC50 at 96 h, cell-killing of CHO-ALPL cells” value was above 1000 nM. The binding result in test [4] and in test [5] was “no binding (tested: 350 nM (highest concentration))” in each case. In addition, the Kd in test [6] worked out at 7.4 nM; in [7], 3.5 nM.

B3: D10-F05-hFc-vcPAB-MMAE [G4S]1 (Fc fusion, DAR 4)
chain 1: QVQLVESGGGLVQPGGSLRLSCAASGSIFSVNTMGWYRQAPGKQRDLVAVATSGGTIHYADSVKGRFTISRDNAKNTVYLQMNSLKPEDTAVYYCNLVVPYGMIAGDHDYWGQGTKVTVSSGGGGSEPKSSDKTHTCPPCPAPELLGGPCVFLFPPKPKDTLMISRTPEVTCVVVDVSHEDPEVKFNWYVDGVEVHNAKTKPREEQYNSTYRVVSVLTVLHQDWLNGKEYKCKVSNKALPAPIEKTISKAKGQPREPQVYTLPPSRDELTKNQVSLYCLVKGFYPSDIAVEWESNGQPENNYKTTPPVLDSDGSFFLYSKLTVDKSRWQQGNVFSCSVMHEALHNHYTQKSLCLSPGK
chain 2: QVQLVESGGGLVQAGGSLRLSCAASGRAFGDYNIGWFRQAPGKEREFVARRTWDGSSTRYDDSVKGRFTVSIDNAKNTAYLQMNSLKTEDTAVYYCAAGRYSRVRGWEYDYWGQGTQVTVSSGGGGSEPKSSDKTHTCPPCPAPELLGGPCVFLFPPKPKDTLMISRTPEVTCVVVDVSHEDPEVKFNWYVDGVEVHNAKTKPREEQYNSTYRVVSVLTVLHQDWLNGKEYKCKVSNKALPAPIEKTISKAKGQPREPQVYTLPPSRDELTKNQVSLTCLVKGFYPSDIAVEWESNGQPENNYKTTPPVLDSDGSFFLTSKLTVDKSRWQQGNVFSCSVMHEALHNHYTQKSLCLSPGK
modifications: MC-vc-PAB-MMAE on Cys 239 and Cys 442 (EU numbering)
notes: Biparatopic drug conjugate, DAR 4; also called #679
Regarding B3, the binding result with human ALPI on CHO cells and in the test with human ALPL on CHO cells was “no binding (tested: 350 nM)” each time.

These data come from patent US20260216242A1 (ALMAC DISCOVERY, published 2026).
